The target in this experiment is Sca2 full-length passenger domain, construct Sca_(34-1515) (Rickettsia conorii) (UniProt Q92JF7). The experiment in a line: ITC.

Regarding “monomeric actin (LatB-actin) (from UniProt P68135 1-377) (natural protein)”, the KD1 (two-site binding model) was 0.19 µM, the KD2 (two-site binding model) was determined as 0.02 µM, the N of the single site model (called unrealistic) worked out at 0.6 and the stoichiometry N (actin subunits per Sca (34-1515)) was 2.

The values above are taken from paper doi:10.1101/467431.
